# Data from patent publication US20230145060A1.
# Like-named read-outs stand apart in the source and are kept apart here.
# Legend:
# Test in all cases: cell-based or functional assay
# [1] = target: HIV-1 Env of pseudovirus X2088 (HIV-1)
# [2] = target: HIV-1 Env of pseudovirus BG505 (HIV-1)
# [3] = target: HIV-1 Env of pseudovirus pCNE8 (HIV-1)
# [4] = target: HIV-1 Env of pseudovirus PV0 (HIV-1)
# [5] = target: HIV-1 Env of pseudovirus T257 (HIV-1)
# [6] = target: HIV-1 Env of pseudovirus 3817 (HIV-1)
# [7] = target: HIV-1 Env of pseudovirus JRCSF (HIV-1) (UniProt P20871)
# [8] = target: HIV-1 Env of pseudovirus THRO (HIV-1)
# [9] = target: HIV-1 Env of pseudovirus Du422 (HIV-1)
# [10] = target: HIV-1 Env of pseudovirus X1632 (HIV-1)
# [11] = target: HIV-1 Env of pseudovirus ZM197 (HIV-1)
# [12] = target: HIV-1 Env of pseudovirus ZM106 (HIV-1)
# [13] = target: HIV-1 Env of pseudovirus 278 (HIV-1)
# [14] = target: HIV-1 Env of pseudovirus SF162 (HIV-1) (UniProt P19550)
# [15] = target: HIV-1 Env of pseudovirus X2088 (HIV-1); remark: listed apart in the source
# [16] = target: HIV-1 Env of pseudovirus BG505 (HIV-1); remark: listed apart in the source
# [17] = target: HIV-1 Env of pseudovirus pCNE8 (HIV-1); remark: listed apart in the source
# [18] = target: HIV-1 Env of pseudovirus PV0 (HIV-1); remark: listed apart in the source
# [19] = target: HIV-1 Env of pseudovirus T257 (HIV-1); remark: listed apart in the source
# [20] = target: HIV-1 Env of pseudovirus 3817 (HIV-1); remark: listed apart in the source
# [21] = target: HIV-1 Env of pseudovirus JRCSF (HIV-1) (UniProt P20871); remark: listed apart in the source
# [22] = target: HIV-1 Env of pseudovirus THRO (HIV-1); remark: listed apart in the source
# [23] = target: HIV-1 Env of pseudovirus Du422 (HIV-1); remark: listed apart in the source
# [24] = target: HIV-1 Env of pseudovirus X1632 (HIV-1); remark: listed apart in the source
# [25] = target: HIV-1 Env of pseudovirus ZM197 (HIV-1); remark: listed apart in the source
# [26] = target: HIV-1 Env of pseudovirus ZM106 (HIV-1); remark: listed apart in the source
# [27] = target: HIV-1 Env of pseudovirus 278 (HIV-1); remark: listed apart in the source
# [28] = target: HIV-1 Env of pseudovirus SF162 (HIV-1) (UniProt P19550); remark: listed apart in the source
substance,measurement,setting,value
N49P7 IgG (antibody),"IC50, neutralization of X2088 PsV",[1],2.5 nM
same,"IC50, neutralization of BG505 PsV",[2],1.4 nM
same,"IC50, neutralization of pCNE8 PsV",[3],1.8 nM
same,"IC50, neutralization of PV0 PsV",[4],1.9 nM
same,"IC50, neutralization of T257 PsV",[5],8.3 nM
same,"IC50, neutralization of 3817 PsV",[6],22 nM
same,"IC50, neutralization of JRCSF PsV",[7],0.85 nM
same,"IC50, neutralization of THRO PsV",[8],50 nM
same,"IC50, neutralization of Du422 PsV",[9],66 nM
same,"IC50, neutralization of X1632 PsV",[10],> 100 nM
same,"IC50, neutralization of ZM197 PsV",[11],3.9 nM
same,"IC50, neutralization of ZM106 PsV",[12],1.2 nM
same,"IC50, neutralization of 278 PsV",[13],> 100 nM
same,"IC50, neutralization of SF162 PsV",[14],1 nM
same,"IC50, neutralization of X2088 PsV",[15],0.38 µg/mL
same,"IC50, neutralization of BG505 PsV",[16],0.21 µg/mL
same,"IC50, neutralization of pCNE8 PsV",[17],0.28 µg/mL
same,"IC50, neutralization of PV0 PsV",[18],0.28 µg/mL
same,"IC50, neutralization of T257 PsV",[19],1.2 µg/mL
same,"IC50, neutralization of 3817 PsV",[20],3.3 µg/mL
same,"IC50, neutralization of JRCSF PsV",[21],0.12 µg/mL
same,"IC50, neutralization of THRO PsV",[22],7.5 µg/mL
same,"IC50, neutralization of Du422 PsV",[23],10 µg/mL
same,"IC50, neutralization of X1632 PsV",[24],> 50 µg/mL
same,"IC50, neutralization of ZM197 PsV",[25],0.58 µg/mL
same,"IC50, neutralization of ZM106 PsV",[26],0.18 µg/mL
same,"IC50, neutralization of 278 PsV",[27],> 50 µg/mL
same,"IC50, neutralization of SF162 PsV",[28],0.15 µg/mL
